The text below walks through data of US20090053213A1 (MorphoSys, published 2009).

In experiment [1] the target is T1, rat GM-CSF (rat, UniProt P48750 18-144).
T1 construct: Bought recombinant protein; also called rat-GM-CSF (Peprotech); rat recombinant GM-CSF
T1 sequence (looked up): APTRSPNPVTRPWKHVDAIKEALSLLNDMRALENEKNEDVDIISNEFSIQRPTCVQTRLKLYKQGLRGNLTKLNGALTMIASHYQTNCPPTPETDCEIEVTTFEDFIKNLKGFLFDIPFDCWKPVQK
In words: solution equilibrium titration (SET), Fab with rat GM-CSF (Peprotech) as analyte in solution.

Experiment [2] addresses T1, rat GM-CSF. Nature of the experiment: solution equilibrium titration (SET), IgG1 with rat GM-CSF (Peprotech) as analyte in solution.
The target of experiment [3] is macaca mulatta (rhesus) GM-CSF (Macaca mulatta (rhesus)). In words: cell-based or functional assay.
The target of experiment [4] is T2, human GM-CSF (human, UniProt P04141 18-144). In words: cell-based or functional assay.
T2 sequence (P04141 18-144): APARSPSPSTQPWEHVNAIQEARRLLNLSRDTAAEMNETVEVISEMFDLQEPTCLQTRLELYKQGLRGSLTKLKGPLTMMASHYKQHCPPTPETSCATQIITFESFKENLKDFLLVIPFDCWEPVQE
The target of experiment [5] is T2, human GM-CSF. In words: SPR (Biacore), Fab over immobilized recombinant human GM-CSF (Peprotech), F1 chip; affinity estimated from off-rates.
Description: A respective amount of HSA was immobilized on the reference flow cell. […] Fab was applied in concentration series of 6.3-200 nM at a flow rate of 20 μl/min.
The target in experiment [6] is T2, human GM-CSF. Nature of the experiment: FACS receptor inhibition assay: antibody pre-incubated with 0.5 µg/ml biotinylated GM-CSF, binding to GM-CSF receptor alpha on CHO-GMRa#11 cells.
Description: (§1) All stainings were performed in round bottom 96-well culture plates (Nalge Nunc) with 1-5×10⁵ cells per well. […] Cells were then washed once with 150 μl FACS buffer/well and taken up in 100 μl phycoerythrin-labeled streptavidin (BD Biosciences Pharmingen) which has been diluted 1:400 in FACS buffer. […] IC₅₀ values were determined from the dose response curves obtained using GraphPad Prism v3.03 software applying a non-linear regression curve fit.
(§2) IC₅₀ values were determined from the dose response curves obtained using GraphPad Prism v3.03 software applying a non-linear regression curve fit.
Experiment [7] has as its target T2, human GM-CSF. Nature of the experiment: cell-based or functional assay. This is another data set of the same source.
Experiment [8] has as its target T2, human GM-CSF. Nature of the experiment: FACS receptor inhibition assay: inhibition of binding of 0.5 µg/ml biotinylated GM-CSF to GM-CSF receptor alpha on CHO-GMRa#11 cells.
Description: as §1, §2
Experiment [9] has as its target T1, rat GM-CSF. Nature of the experiment: SPR (Biacore 3000), Fab captured on anti-F(ab)2, rat GM-CSF as analyte.
Description: (§3) This was performed in a capture set-up by surface plasmon resonance (Biacore 3000, Uppsala, Sweden).
(§4) CM5 chips (Biacore, Sweden) were coated with 5000-6000 RU anti-F(ab)₂ (Dianova, Affinipure F(ab)₂ Fragment Goat Anti-Human IgG, F(ab)₂ Fragment specific); 80 μg/ml 10 mM acetate buffer, pH4 on all 4 flow cells, using standard EDC-NHS amine coupling chemistry. […] After capturing of the specific Fab, buffer was injected, to determine the dissociation of anti-Fab/Fab interaction. In a following cycle, the analyte growth factor was injected (20 μl, flow rate 20 μl/min) at a concentration range between 15 and 2000 nM for the determination of the specific signal. Afterwards the achieved buffer sensogram was manually subtracted from the specific one. After each cycle, the flow cells were regenerated with 100 mM HCl (5 μl).
Experiment [10] addresses T2, human GM-CSF. In words: solution equilibrium titration (SET, ECL/BioVeris), Fab with human GM-CSF (Leucomax) in solution.
Experiment [11] deals with T3, human IL-4 (human, UniProt P05112 25-153).
T3 construct: Bought recombinant protein
T3 sequence (looked up): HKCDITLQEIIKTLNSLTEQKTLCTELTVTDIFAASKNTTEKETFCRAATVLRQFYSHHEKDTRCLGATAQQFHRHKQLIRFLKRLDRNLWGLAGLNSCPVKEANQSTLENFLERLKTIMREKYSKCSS
In words: SPR (Biacore 3000), Fab captured on anti-F(ab)2, cytokine as analyte.
Description: as §3, §4

Experiment [12] has as its target T4, human IL-5 (human, UniProt P05113 20-134).
T4 construct: Bought recombinant protein
T4 sequence (looked up): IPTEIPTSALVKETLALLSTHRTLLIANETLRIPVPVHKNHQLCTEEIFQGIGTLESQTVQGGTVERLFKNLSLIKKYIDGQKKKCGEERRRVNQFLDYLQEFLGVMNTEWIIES
The description is as above.
Description: as §3, §4

For experiment [13], the target named is T5, human IL-3 (human, UniProt P08700 20-152).
T5 construct: Bought recombinant protein
T5 sequence (looked up): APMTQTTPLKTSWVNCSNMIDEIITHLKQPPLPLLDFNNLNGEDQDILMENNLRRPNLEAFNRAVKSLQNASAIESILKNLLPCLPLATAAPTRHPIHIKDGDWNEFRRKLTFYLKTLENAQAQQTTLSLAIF
Described as above.
Description: as §3, §4

Experiment [14] addresses T1, rat GM-CSF. Described as above.
Description: as §3, §4
The target in experiment [15] is T6, mouse GM-CSF (mouse, UniProt P01587 18-141).
T6 construct: Bought recombinant protein
T6 sequence (looked up): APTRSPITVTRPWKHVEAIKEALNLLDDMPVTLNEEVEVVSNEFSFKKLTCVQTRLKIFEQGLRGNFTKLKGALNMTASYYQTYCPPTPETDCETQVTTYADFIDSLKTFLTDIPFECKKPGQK
The experiment is described as above.
Description: as §3, §4

Experiment [16] addresses T7, human IL-13 (human, UniProt P35225 35-146).
T7 construct: Bought recombinant protein
The experiment is described as above.
Description: as §3, §4

In experiment [17] the target is T8, human M-CSF (human, UniProt P09603 33-190, limits assumed).
T8 construct: Bought recombinant protein
T8 sequence (looked up): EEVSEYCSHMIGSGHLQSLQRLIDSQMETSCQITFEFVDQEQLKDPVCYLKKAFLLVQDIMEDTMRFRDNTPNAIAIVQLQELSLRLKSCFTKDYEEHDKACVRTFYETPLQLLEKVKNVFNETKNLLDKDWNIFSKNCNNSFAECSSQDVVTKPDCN
The experiment is described as above.
Description: as §3, §4

Experiment [18] has as its target T2, human GM-CSF. In words: cell-based or functional assay. This is another data set of the same source.

T7 sequence (P35225 35-146 limits assumed): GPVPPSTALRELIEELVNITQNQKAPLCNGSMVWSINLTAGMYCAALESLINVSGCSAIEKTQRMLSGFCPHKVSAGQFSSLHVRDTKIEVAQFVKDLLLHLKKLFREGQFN

B1: MOR04357 Fab (Fab, V domains shown)
VH: QVQLVESGGGLVQPGGSLRLSCAASGFTFSSYWMNWVRQAPGKGLEWVSGIENKYAGGATYYAASVKGRFTISRDNSKNTLYLQMNSLRAEDTAVYYCARGFGTDFWGQGTLVTVSS
VL: DIELTQPPSVSVAPGQTARISCSGDSIGKKYAYWYQQKPGQAPVLVIYKKRPSGIPERFSGSNSGNTATLTISGTQAEDEADYYCSAWGDKGMVFGGGTKLTVLG
notes: X-cloned Fab (VH of MOR04252 x VL of MOR04302) with FLAG and 6xHis tags; also called Fab MOR04357
B1 showed a Kd in experiment [1] of 1 nM.

B2: MOR04357 IgG1 (antibody, V domains shown)
VH: QVQLVESGGGLVQPGGSLRLSCAASGFTFSSYWMNWVRQAPGKGLEWVSGIENKYAGGATYYAASVKGRFTISRDNSKNTLYLQMNSLRAEDTAVYYCARGFGTDFWGQGTLVTVSS
VL: DIELTQPPSVSVAPGQTARISCSGDSIGKKYAYWYQQKPGQAPVLVIYKKRPSGIPERFSGSNSGNTATLTISGTQAEDEADYYCSAWGDKGMVFGGGTKLTVLG
notes: expressed in HKB11 cells; also called IgG1 MOR04357
In turn, B2 came in with a Kd in [2] of 0.13 nM. Also, the “IC50 (pM) in TF-1 proliferation assay, macaca GM-CSF (HEK293)” value in experiment [3] was determined as 15 pM.

B3: MOR03929 Fab (Fab, V domains shown)
VH: QVQLVESGGGLVQPGGSLRLSCAASGFTFSSYWMNWVRQAPGKGLEWVSGISYSGSETYYADSVKGRFTISRDNSKNTLYLQMNSLRAEDTAVYYCARGFGTDFWGQGTLVTVSS
VL: DIELTQPPSVSVAPGQTARISCSGDSIGKKYAYWYQQKPGQAPVLVIYKKRPSGIPERFSGSNSGNTATLTISGTQAEDEADYYCSSWDSTGLVFGGGTKLTVLG
notes: Parental HuCAL GOLD Fab with C-terminal FLAG and 6xHis tags
Consider B3, for which, in experiment [4], the “inhibition of TF1 cell proliferation at 2 µM Fab, human GM-CSF (Leucomax) 0.25 ng/ml” value was over 50%. The equilibrium dissociation constant (Kd) in experiment [5] is 4.26 nM; in experiment [10], 2 nM. This molecule also registered an IC50 in [6] of 35 nM. In addition, in [7], the “IC50 (pM) in TF-1 proliferation assay, human GM-CSF 0.25 ng/ml” value was over 200000 pM. The “% inhibition at 5 µg/ml antibody” value in [8] is about 60%. In addition, in [9], the binding result was “binds”.

B4: MOR03682 Fab (Fab, V domains shown)
VH: QVQLVQSGAEVKKPGSSVKVSCKASGGTFNSFLISWVRQAPGQGLEWMGGIIPIFGTANYAQKFQGRVTITADESTSTAYMELSSLRSEDTAVYYCARKFISDSWGQGTLVTVSS
VL: DIQMTQSPSSLSASVGDRVTITCRASQTINNYLNWYQQKPGKAPKLLIYTASNLQSGVPSRFSGSGSGTDFTLTISSLQPEDFAVYYCQQYSGSPMTFGQGTKVEIKR
notes: as for B3
As for B4, the “inhibition of TF1 cell proliferation at 2 µM Fab, human GM-CSF (Leucomax) 0.25 ng/ml” value in [4] was over 50%. For the same molecule, the binding result in experiment [11], in [12], in experiment [13], in experiment [14], in [15] and in experiment [16] was “no binding (tested: analyte 15 to 2000 nM)” in each case. The binding result in experiment [17] is given as “no binding (tested: analyte 15 to 2000 nM)”. The “IC50 (pM) in TF-1 proliferation assay, human GM-CSF” value in [18] was over 200000 pM. In [10], this molecule gave a Kd of 11.4 nM.
